The values below come from article PMC6356648.

In the assay the target is laminin-332 produced and deposited by iNFs and iCAFs (human (endogenous in iNFs and iCAFs)) (UniProt Q16787).

Take “integrin α3β1 (from UniProt P26006 33-1051; P05556 21-798) (receptor)”: the contraction of a collagen-I gel by iCAFs, untreated (reference) worked out at 73%; the contraction of a collagen-I gel by iCAFs, with BM2 (20 µg/mL) was determined as 44%; the contraction of a collagen-I gel by iCAFs, with lebein-1 (10 µg/mL) was 34%.
